Laboratory results as given in PMC7641318.

Test system: T1, hADAR2-R2D (Fig. 2C, Fig. S4, Table S4) E488Q (human), P78563-2
T1 sequence: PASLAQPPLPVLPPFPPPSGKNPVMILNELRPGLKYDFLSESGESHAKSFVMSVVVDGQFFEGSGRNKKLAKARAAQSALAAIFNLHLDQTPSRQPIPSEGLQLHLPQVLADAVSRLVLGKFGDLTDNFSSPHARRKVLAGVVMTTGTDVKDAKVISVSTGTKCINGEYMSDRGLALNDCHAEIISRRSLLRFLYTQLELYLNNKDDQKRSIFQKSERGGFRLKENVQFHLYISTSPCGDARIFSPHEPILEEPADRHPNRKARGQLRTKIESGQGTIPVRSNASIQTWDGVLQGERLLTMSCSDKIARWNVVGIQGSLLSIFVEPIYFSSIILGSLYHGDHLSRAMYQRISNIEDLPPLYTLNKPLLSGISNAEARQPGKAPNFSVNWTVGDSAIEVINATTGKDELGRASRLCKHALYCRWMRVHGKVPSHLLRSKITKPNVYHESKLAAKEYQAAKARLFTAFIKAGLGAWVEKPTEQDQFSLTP
Assay: EMSA
Settings: EMSA: 20 mM Tris-HCl pH 7.0, 3.5% glycerol, 0.5% DTT, 60 mM KCl, 20 mM NaCl, 0.1 mM BME, 1.5 mM EDTA, 0.003% NP-40, 160 U/ml RNasin, 100 ug/ml BSA, 1 ug/ml …

[1] = N = 8-azanebularine at top position 13

Row | Sequence | Kd [1] | Kd (N = 8-azanebularine at top position 18)
1 | GCUCGCGAUGCUNGAGGGCUCUGAUAGC / GCUAUCAGAGCCCCCCAGCAUCGCGAGC [hGLI1-28-3' 8AN (3' extended)] | 1.79 nM | 
2 | GCAUAGCUCGCGAUGCUNGAGGGCUCUG / CAGAGCCCCCCAGCAUCGCGAGCUAUGC [hGLI1-28-5' 8AN (5' extended)] |  | 1.31 nM
3 | GCUCGCGAUGCUNGAGGGCUCUG / CAGAGCCCCCCAGCAUCGCGAGC [hGLI1-23 8AN] | 2.67 nM | 
